Values joined by “and” are separate entries in the source; they are usually repeats but may differ in a detail not shown here. Equal values may be shown once.
Substance: PG16 RUA (antibody)
- fold enhancement of neutralization sensitivity (CAM13RRK): 50 fold
- fold enhancement of neutralization sensitivity (CAM13K+K169R (SIVcpz)): 10 fold
- fold improvement of neutralization sensitivity (CH505_V2UCAOPT_v3.0): 100 fold

Substance: CAP256 VRC26 UCA (antibody)
- IC50, neutralization (CAP256SU (HIV-1)): 35 µg/mL
- fold reduction of neutralization reactivity (CAP256SU_UCA_OPT_3.0): 3 fold and 4 fold

Substance: CH01 UCA (antibody)
- IC50, neutralization (CAP256SU_UCA_OPT): 1.92 µg/mL

Substance: PCT64 LMCA (antibody)
- 50% neutralization, pseudovirus neutralization (CH505 UCA_OPT_2+H130D): 100 µg/mL
- IC50, pseudovirus neutralization (CH505 UCA_OPT2+N332): 105 µg/mL

Source: US20250340598A1
